Patent publication US11312781B2, “Antigen binding molecules that bind LIGHT” (Capella Bioscience Ltd., priority 2018, dated 2022)

How the values were obtained:
[1] = target: T1, DcR3 binding to membrane LIGHT (EL4-LIGHT cells) (Homo sapiens, UniProt O43557); experiment: Competition binding of anti-membrane LIGHT antibodies with DcR3-His on EL4-LIGHT cells; settings: mAb at up to 100 nM
T1 construct: expressed in transfected cells; host or cells: EL4 mouse lymphoma cells, stably transduced
Protocol: DcR3 (TNFRSF6B) is a decoy receptor that competes with receptors for ligand binding. DcR3 can bind and neutralise LIGHT with high affinity and TL1A and FasL with lower affinity (Zhan C et al. Structure. 2011, 19:162-71 “Decoy strategies: the structure of TL1A:DcR3 complex”). Stably transduced LIGHT-expressing EL4 cells (mouse lymphoma cell line; EL4-LIGHT) were used for the flow cytometry-based competition-binding analysis.
EL4-LIGHT cells (0.25×10^6) were preincubated with anti-membrane LIGHT mAbs (0-300 nM) for 15 min at 4° C. followed by incubation with DcR3-His tagged (1 nM, Creative BioMart; ref:TNFRSF6B-552H, lot:962512) for 30 min at 4° C. The samples were then incubated with mouse anti-histag antibody (diluted 1:500, Biolegend, cat. no. 652502) for 30 minutes at 4° C., followed by incubation with anti-mouse APC (dil 1:500, BDBiosciences, cat. no. 550826) for 30 minutes at 4° C. The tubes were washed three times after each of the detection antibody stages and flow cytometry analysis was performed. Specific mean fluorescence intensity (MFI) obtained from the binding of DcR3-His to LIGHT on EL4 cells were used to determine the levels of competition binding.

[2] = tested on: DSS-induced colitis in hu-NOG mice; experiment: DSS-induced acute colitis in humanized (hu-NOG) mice; format: in vivo, mouse (hu-NOG)
Protocol: The experiments were carried out with the NOD/Shi-scid/IL-2Rγnull immunodeficient mouse strain (NOG) engrafted with CD34+ hematopoietic stem cells isolated from human cord blood as described in Manfroi B et al. (Cancer Res. 2017; 77:1097-1107). The reconstitution of the human immune system in the mice occurred for at least 14 weeks, and hu-mice were used that had at least 25% human CD45+/total CD45 cells. Female hu-NOG mice were randomised into 3 groups (n=10) taking into account the humanization rate and the CD34+ cell donors. All animal studies described in this study have been reviewed and approved by the local ethic committee (CELEAG). Mice were allowed to acclimate to the experimental environment for 5 days prior to the beginning of the experiment. The DSS was administrated for 7 days, from day 2 to 8. The DSS (3%) was added to the drinking water (ad libitum) and freshly renewed every two days.
All treatments started before the DSS-induced colitis. 3B04 variant 16 (5 mg/kg) and the isotype control and anti-TNF (Humira) antibodies (10 mg/kg) were administrated i.p. on days 0, 3, 6, 9. The experiment was terminated on day 12. The following parameters were recorded daily for 12 days: body weight in grams (g); diarrhea and stool consistency; bleeding and mortality. The global clinical score was calculated as follows: […]

[3] = tested on: CMV stimulated human PBMC; experiment: Human PBMC antigen specific (CMV) recall response in vitro, cytokines by Luminex; format: cell-based; settings: CMV stimulation, 5 day incubation
Protocol: In order to test the efficacy of anti-LIGHT mAbs on stimulated PBMC a recall antigen CMV (cytomegalovirus) lysate was utilised to stimulate PBMC from human CMV-positive donors (ImmunXperts, Belgium). 200 000 cells per well in RPMI (Thermofisher cat. no. 11875) plus 10% FBS (GIBCO) was added to CMV lysate (Serion immunologics cat. no. BA109VS, final concentration 10 ug/ml) with test mAbs in a volume of 200 ul. After a 5 day incubation at 37C and 5% CO2 the media was recovered by centrifugation and assayed for cytokines by Luminex immunoassay (ThermoFisher).

[4] = tested on: wild type and mutated membrane LIGHT; experiment: Alanine scanning mutagenesis of membrane LIGHT and flow cytometry (HEK293FF cells); format: binding, human
Description: The full length LIGHT gene was synthesized by GeneArt (ThermoFisher Scientific) and cloned into the mammalian expression vector pcDNA 3.1(+). The following Ala mutations were introduced into the LIGHT gene: 30 single amino acid alanine substitutions from F57A to E86A; 2 single amino acid alanine substitutions; G188A, R189A; one serine substitution, A190S; 17 single amino acid alanine substitutions; T191A to V207A and 10 four amino acid alanine substitutions, 60-63, 64-67, 68-71, 72-75, 76-79, 80-83, 84-87, 88-91, 92-95 and 96-99. Constructs were reconstituted according to manufacture instructions, using DEPC-treated and sterile filtered water. Competent TOP10 E. coli cells were transformed with 100 ng of each construct and a single colony from each construct was picked and used to inoculate 10 ml of LB/carb100/glu2% medium and grown overnight at 37° C., 200 rpm. The extraction of the construct DNA was performed using the Qiagen QIAprep Spin Miniprep Kit (250) and the concentration was determined by measuring the O.D. at 260 nm in a spectrophotometer.
HEK293FF cells were cultured in Freestyle™293 expression medium (ThermoFisher scientific cat. no. 12338018) supplemented with 2 mM L-Glutamine. The day of transfection the cells were seeded in a 24-well plate at 0.6×10^6 cells/well. Lipofectamine 2000 (ThermoFisher scientific), 3 μl, was mixed with 50 μl OptiMEM medium (GIBCO) and then added to 50 μl Opti-MEM medium containing 3 ug plasmid DNA and incubated for 20 min at RT to form DNA-Lipofectamine 2000 complexes which were then added to the HEK293FF cells and incubated at 37° C., 5% CO2 for 24 hours. For each construct, in duplicate, 0.60×10^6 cells/well were used in a 96 well round bottom plate. Cells were centrifuged for 3 minutes at 300×g at 4° C., the supernatant discarded and the cells washed with 150 μl FACS buffer (0.5% FBS in phosphate buffered saline). This process was repeated 3 times. For each construct, […] cells/well were incubated with anti-LIGHT antibodies at the EC50 concentration and with positive controls of anti-LIGHT mAb MAB664 (R&D Systems), mAb F19 (EP2292663) or LTBR-Fc (R&D Systems), in a final volume of 50 μl/well for 30 min at 4° C., with shaking. The wells were washed 3 times as above and 50 μl/well of goat anti-human IgG FITC (1:1500 dilution in FACS buffer, SIGMA F9512-2ML) or goat anti-mouse APC (1/500 dilution in FACS buffer, BDBioscience 550826), as appropriate, was added to the wells and incubated for 30 min at 4° C. protected from the light, with shaking. The cells were then washed as above, resuspended in 100 μl of FACS buffer and binding of the antibodies to the constructs was measured using flow cytometry and a total of 10,000 cells were acquired for each sample. Controls of buffer and secondary antibody only as well as HEK293FF non transfected cells were also used.
All of the mAbs of this invention show a similar profile in that their epitope is located at amino acids 188-197 of LIGHT. […] The epitope of the mAbs of this invention defined by alanine scanning mutagenesis are residues 188-197 of LIGHT. This is visually depicted in FIG. 8 utilising a 3D visualisation of the LIGHT trimer from the crystal structure of LIGHT from Liu et al. (Structure 22: 1252-62; 2014). This would result in the mAbs binding to the “tip” of the LIGHT trimer and explaining the 1:1 binding. The impact of this epitope would result in […] less dosing of mAb 3B04 being required to neutralise membrane LIGHT compared to, for example, mAbs F19 and F23 (of EP2292663) which bind both soluble and membrane LIGHT equally and bind LIGHT in the ratio 3:1.

T1 sequence (O43557 whole entry): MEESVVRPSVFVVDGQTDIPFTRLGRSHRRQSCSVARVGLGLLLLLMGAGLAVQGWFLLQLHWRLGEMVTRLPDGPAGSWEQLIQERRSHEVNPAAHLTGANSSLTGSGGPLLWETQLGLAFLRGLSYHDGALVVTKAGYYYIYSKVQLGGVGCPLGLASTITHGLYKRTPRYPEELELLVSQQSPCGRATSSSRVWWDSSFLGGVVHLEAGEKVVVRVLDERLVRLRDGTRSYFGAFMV

B1: 2E08: parental anti-membrane LIGHT antibody, VL SEQ ID NO 81, VH SEQ ID NO 85; chimeric IgG4 mAb (antibody, listed as Homo sapiens, V domains shown)
VH: QVQMKESGAELVRPGVSVKISCKGSGYTFTDYAIHWVKQSHAKTLEWIGVISTYYGDASYNQKFKGKATMTVDKSSSTAYMELARLTSDDSAIYYCARSRGEYGNYDAMDYWGQGTSVTVSS
VL: DIVLTQSPASLAVSLGQRATISCKASQSVDYDGDSYMNWYQQKPGQPPKLLIYAASNLESGIPARFSGSGSGTDFTLNIHPVEEEDAATYYCQQSNEDPLTFGAGTKLELK
B1 was tested, and the “Inhibition of DcR3 binding to membrane LIGHT” value (from here on “Inhibition of DcR3 binding”) [1] was “only partially inhibit”.

B2: 3A07: parental anti-membrane LIGHT antibody, VL SEQ ID NO 97, VH SEQ ID NO 101; chimeric IgG4 mAb (antibody, listed as Homo sapiens, V domains shown)
VH: QVQLQQSGAELVRPGAPVTLSCKASDYTFTDSEIHWVKQTPVHGLEWIGEIDPETGGTAYNQKFKGKATLTADKSSSTAYMELRSLTSEDSAVYYCSRETDYFFDYWGQGTTLTVSS
VL: ENVLTQSPAIMSASPGEKVTMTCSASSSVSYMYWYQQRPGSSPRLLIYDTSNLASGVPVRFSGSGSGTSYSLTISRMEAEDAATYYCQQWSSYPLTFGSGTKLEIK
In the case of B2, the “Inhibition of DcR3 binding” value [1] is reported as “only partially inhibit”.

B3: 3C10: parental anti-membrane LIGHT antibody, VL SEQ ID NO 89, VH SEQ ID NO 93; chimeric IgG4 mAb (antibody, listed as Homo sapiens, V domains shown)
VH: EVQLQQSGAELVRPGASVTLSCKASDYTFTDSEIHWVKQTPVHGLEWIGEIDPETGGTAYNQKFKGKATLTADKSSSTAYMELRSLTSEDSAVYYCSRETDYFFDYWGQGTTLTVSS
VL: DVVMTQTPAIMSASPGEKVTMTCSASSSVSYMYWYQQKPGSSPRLLIYDTSNLASGVPVRFSGSGSGTSYSLTISRMEAEDAATYYCQQWSSYPLTFGAGTKLELK
B3 was tested, and the “Inhibition of DcR3 binding” value [1] was “only partially inhibit”.

B4: 3B04_var16: deimmunised 3B04 IgG4 variant: 3B04_VL_4 (SEQ ID NO 33) + 3B04_VH_4 (SEQ ID NO 37) (antibody, listed as Homo sapiens, V domains shown)
VH: QVQLVQSGAEVKKPGASVKVSCKASGYTFTDYEMHWVRQAPGQGLEWMGEIDPETGDTAYAQKFQGRVTLTADKSTSTAYMELSSLRSEDTAVYYCSRETDYFFDYWGQGTLVTVSS
VL: DIQMTQSPSSLSASVGDRVTITCRASENIYGALNWYQQKPGKAPKLLIYGATNLAEGVPSRFSGSGSGRDYTLTISSLQPEDFATYYCQNVLTTPWTFGQGTKLEIKR
For B4, the “Effect on global clinical score compared to the anti-TNF positive control” value ([2]; 3B04 variant 16 5 mg/kg, Humira 10 mg/kg) was “significantly superior (p<0.05)”, the Global clinical score ([2]; i.p. days 0, 3, 6, 9, versus IgG control, FIG. 9) was “significant (p<0.05) decrease in global clinical score as early as day 2” and the “IL-17 production from PBMC” value ([3]; FIG. 11A) was “significantly (p<0.05) inhibited”. For the same molecule, the “IFN gamma production from PBMC” value ([3]; FIG. 11B) was “significantly (p<0.05) inhibited”, the “TNF production from PBMC” value ([3]; FIG. 11C) was “significantly (p<0.05) inhibited” and the “IL-6 production from PBMC” value ([3]; FIG. 11D) was “significantly (p<0.05) inhibited”. The “IL-12p70 production from PBMC” value ([3]; FIG. 11E) was “significantly (p<0.05) inhibited”.

B5: LTBR-Fc: LTBR-Fc receptor fusion protein (R&D Systems), positive control in alanine scanning (protein)
chain: SQPQAVPPYASENQTCRDQEKEYYEPQHRICCSRCPPGTYVSAKCSRIRDTVCATCAENSYNEHWNYLTICQLCRPCDPVMGLEEIAPCTSKRKTQCRCQPGMFCAAWALECTHCELLSDCPPGTEAELKDEVGKGNNHCVPCKAGHFQNTSSPSARCQPHTRCENQGLVEAAPGTAQSDTTCKNPLEPLPPEMSGTMLM
modifications: left off: a dimerising Fc or GST
notes: LTBR-Fc receptor fusion protein (R&D Systems), positive control in alanine scanning
B5 was tested, and the “Binding to LIGHT alanine substitution constructs versus WT LIGHT” value ([4]; single substitutions F57A to E86A and four amino acid substitutions 60-63 to 96-99) was “no difference in binding” and the “Binding to LIGHT amino acid substitution constructs versus WT LIGHT” value ([4]; substitutions G188A to V207A) was “no difference in binding”.
